Test results published in publication PMC2935968 (2010).

Target: T1, CHORDII domain of cress (Arabidopsis thaliana) Rar1 (Arabidopsis thaliana, UniProt Q9SE33 149-221)
T1 chain: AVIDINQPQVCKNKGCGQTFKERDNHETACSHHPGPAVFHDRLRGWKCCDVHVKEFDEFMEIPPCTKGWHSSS
Experiment: ITC

B1: N-terminal domain of barley (Hordeum vulgare) Hsp90 (domain or fragment)
chain: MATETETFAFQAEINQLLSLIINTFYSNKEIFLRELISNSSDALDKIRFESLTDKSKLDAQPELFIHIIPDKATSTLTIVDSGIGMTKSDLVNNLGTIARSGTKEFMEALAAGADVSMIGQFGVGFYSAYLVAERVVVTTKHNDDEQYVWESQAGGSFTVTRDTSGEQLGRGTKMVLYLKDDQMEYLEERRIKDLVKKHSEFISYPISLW
B1 was tested, and the Kd was 22.3 µM.
